Assay results reported in doi:10.1101/2020.08.24.265033, “Dipeptidyl peptidase 9 triggers BRCA2 degradation by the N-degron pathway to promote DNA-damage repair” (bioRxiv, 2020).

Biological target: T1, Human recombinant DPP9 (dipeptidyl peptidase 9), His-tagged (human, UniProt Q86TI2 1-863)
T1 construct: Dipeptidyl peptidase 9, human, recombinant; Held on a Ni chip by its His tag in SPR; used in solution in the pull-down; also called purified DPP9; His-tagged DPP9; source: Sf9 cells, purified essentially as described in Pilla et al. 2012
Experiment: SPR; His-tagged DPP9 immobilised on a Ni-loaded NiHC1000m chip; serial dilution of BRCA2 peptides injected; 20 mM HEPES pH 7.4, 150 mM NaCl, 50 µM EDTA, 0.005 % TWEEN-20; 20°C; equilibrium binding analysis
Conditions: both partners purified

T1 sequence (Q86TI2 whole entry): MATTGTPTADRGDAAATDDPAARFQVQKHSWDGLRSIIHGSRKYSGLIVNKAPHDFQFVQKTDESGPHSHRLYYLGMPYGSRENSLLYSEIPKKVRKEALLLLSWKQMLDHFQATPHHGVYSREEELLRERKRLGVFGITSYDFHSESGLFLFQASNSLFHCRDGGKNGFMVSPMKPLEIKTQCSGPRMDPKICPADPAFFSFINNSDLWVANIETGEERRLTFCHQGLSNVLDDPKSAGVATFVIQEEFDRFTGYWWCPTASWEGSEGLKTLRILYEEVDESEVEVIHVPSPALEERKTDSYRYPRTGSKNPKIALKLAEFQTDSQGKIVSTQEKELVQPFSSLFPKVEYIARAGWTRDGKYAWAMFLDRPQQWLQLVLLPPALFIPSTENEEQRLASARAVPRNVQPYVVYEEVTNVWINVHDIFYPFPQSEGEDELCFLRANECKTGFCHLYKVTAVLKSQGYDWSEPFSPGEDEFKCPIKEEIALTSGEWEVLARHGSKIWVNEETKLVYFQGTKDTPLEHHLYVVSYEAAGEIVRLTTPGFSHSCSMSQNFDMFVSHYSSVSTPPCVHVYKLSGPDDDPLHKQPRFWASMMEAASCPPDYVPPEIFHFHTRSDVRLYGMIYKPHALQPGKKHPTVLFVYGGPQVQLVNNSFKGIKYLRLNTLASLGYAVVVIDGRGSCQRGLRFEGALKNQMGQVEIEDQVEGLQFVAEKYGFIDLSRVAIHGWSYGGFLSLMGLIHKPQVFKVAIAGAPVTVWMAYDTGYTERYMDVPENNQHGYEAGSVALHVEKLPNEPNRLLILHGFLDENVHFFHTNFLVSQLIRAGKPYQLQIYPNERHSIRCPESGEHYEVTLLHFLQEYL

B1: BRCA2_(3-40) synthetic peptide (truncated, lacking Met1-Pro2) (peptide, UniProt P51587 3-40, looked up)
peptide: IGSKERPTFFEIFKTRCNKADLGPISLNWFEELSSEAP
notes: BRCA2, human, residues 3-40; also called truncated BRCA2_(3-40) peptide; source: synthetic peptide
  Kd: 75.3 ± 4.8 µM

B2: BRCA2_(1-40) synthetic peptide (first forty amino acids of BRCA2) (peptide, UniProt P51587 1-40, looked up)
peptide: MPIGSKERPTFFEIFKTRCNKADLGPISLNWFEELSSEAP
notes: BRCA2, human, residues 1-40; also called BRCA2_(1-40) N-terminal peptide; BRAC2_(1-40) peptide; source: synthetic peptide
  Kd: 16.8 ± 0.7 µM
